# Assay results from patent US20190315873A1 (AGOMAB THERAPEUTICS, published 2019).
# B1: 71G3 llama-human chimeric mAb (human IgG1/lambda) (antibody)
# heavy: QVQLVESGGGLVQPGGSLRVSCAASGFTFSTYYMSWVRQAPGKGLEWVSDIRTDGGTYYADSVKGRFTMSRDNAKNTLYLQMNSLKPEDTALYYCARTRIFPSGYDYWGQGTQVTVSSASTKGPSVFPLAPSSKSTSGGTAALGCLVKDYFPEPVTVSWNSGALTSGVHTFPAVLQSSGLYSLSSVVTVPSSSLGTQTYICNVNHKPSNTKVDKKVEPKSCDKTHTCPPCPAPELLGGPSVFLFPPKPKDTLMISRTPEVTCVVVDVSHEDPEVKFNWYVDGVEVHNAKTKPREEQYNSTYRVVSVLTVLHQDWLNGKEYKCKVSNKALPAPIEKTISKAKGQPREPQVYTLPPSRDELTKNQVSLTCLVKGFYPSDIAVEWESNGQPENNYKTTPPVLDSDGSFFLYSKLTVDKSRWQQGNVFSCSVMHEALHNHYTSEVFVPQSRKVI
# light: QAVVTQEPSLSVSPGGTVTLTCGLSSGSVTTSNYPGWFQQTPGQAPRTLIYNTNSRHSGVPSRFSGSISGNKAALTIMGAQPEDEADYYCSLYPGSTTVFGGGTHLTVLQPKAAPSVTLFPPSSEELQANKATLVCLISDFYPGAVTVAWKADSSPVKAGVETTTPSKQSNNKYAASSYLSLTPEQWKSHRSYSCQVTHEGSTVEKTVAPTECS
# B2: 71G3 llama-mouse chimeric mAb (mouse IgG1/lambda) (antibody)
# heavy: QVQLVESGGGLVQPGGSLRVSCAASGFTFSTYYMSWVRQAPGKGLEWVSDIRTDGGTYYADSVKGRFTMSRDNAKNTLYLQMNSLKPEDTALYYCARTRIFPSGYDYWGQGTQVTVSSAKTTPPSVYPLAPGSAAQTNSMVTLGCLVKGYFPEPVTVTWNSGSLSSGVHTFPAVLQSDLYTLSSSVTVPSSPRPSETVTCNVAHPASSTKVDKKIVPRDCGCKPCICTVPEVSSVFIFPPKPKDVLTITLTPKVTCVVVDISKDDPEVQFSWFVDDVEVHTAQTQPREEQFNSTFRSVSELPIMHQDWLNGKEFKCRVNSAAFPAPIEKTISKTKGRPKAPQVYTIPPPKEQMAKDKVSLTCMITDFFPEDITVEWQWNGQPAENYKNTQPIMNTNGSYFVYSKLNVQKSNWEAGNTFTCSVLHEGLHNHHTEKSLSHSPGK
# light: QAVVTQEPSLSVSPGGTVTLTCGLSSGSVTTSNYPGWFQQTPGQAPRTLIYNTNSRHSGVPSRFSGSISGNKAALTIMGAQPEDEADYYCSLYPGSTTVFGGGTHLTVLGQPKSSPSVTLFPPSSEELETNKATLVCTITDFYPGVVTVDWKVDGTPVTQGMETTQPSKQSNNKYMASSYLTLTARAWERHSSYSCQVTHEGHTVEKSLSRADCS
# notes: also called 71G3 (mouse format)
# B3: 71G2 llama-human chimeric mAb (human IgG1/lambda) (antibody)
# heavy: EVQLQESGGGLVQPGGSLRLSCAASGFTFSIYDMSWVRQAPGKGLEWVSTINSDGSSTSYVDSVKGRFTISRDNAKNTLYLQMNSLKPEDTAVYYCAKVYGSTWDVGPMGYGMDYWGKGTLVTVSSASTKGPSVFPLAPSSKSTSGGTAALGCLVKDYFPEPVTVSWNSGALTSGVHTFPAVLQSSGLYSLSSVVTVPSSSLGTQTYICNVNHKPSNTKVDKKVEPKSCDKTHTCPPCPAPELLGGPSVFLFPPKPKDTLMISRTPEVTCVVVDVSHEDPEVKFNWYVDGVEVHNAKTKPREEQYNSTYRVVSVLTVLHQDWLNGKEYKCKVSNKALPAPIEKTISKAKGQPREPQVYTLPPSRDELTKNQVSLTCLVKGFYPSDIAVEWESNGQPENNYKTTPPVLDSDGSFFLYSKLTVDKSRWQQGNVFSCSVMHEALHNHYTSEVFVPQSRKVI
# light: SSALTQPSALSVSLGQTARITCQGGSLGSSYAHWYQQKPGQAPVLVIYGDDSRPSGIPERFSGSSSGGTATLTISGAQAEDEDDYYCQSTDSSGNTVFGGGTRLTVLQPKAAPSVTLFPPSSEELQANKATLVCLISDFYPGAVTVAWKADSSPVKAGVETTTPSKQSNNKYAASSYLSLTPEQWKSHRSYSCQVTHEGSTVEKTVAPTECS
# B4: 71D6 llama-mouse chimeric mAb (mouse IgG1/lambda) (antibody)
# heavy: ELQLVESGGGLVQPGGSLRLSCAASGFTFSSYGMSWVRQAPGKGLEWVSAINSYGGSTSYADSVKGRFTISRDNAKNTLYLQMNSLKPEDTAVYYCAKEVRADLSRYNDYESYDYWGQGTQVTVSSAKTTPPSVYPLAPGSAAQTNSMVTLGCLVKGYFPEPVTVTWNSGSLSSGVHTFPAVLQSDLYTLSSSVTVPSSPRPSETVTCNVAHPASSTKVDKKIVPRDCGCKPCICTVPEVSSVFIFPPKPKDVLTITLTPKVTCVVVDISKDDPEVQFSWFVDDVEVHTAQTQPREEQFNSTFRSVSELPIMHQDWLNGKEFKCRVNSAAFPAPIEKTISKTKGRPKAPQVYTIPPPKEQMAKDKVSLTCMITDFFPEDITVEWQWNGQPAENYKNTQPIMNTNGSYFVYSKLNVQKSNWEAGNTFTCSVLHEGLHNHHTEKSLSHSPGK
# light: QPVLNQPSALSVTLGQTAKITCQGGSLGARYAHWYQQKPGQAPVLVIYDDDSRPSGIPERFSGSSSGGTATLTISGAQAEDEGDYYCQSADSSGSVFGGGTHLTVLGQPKSSPSVTLFPPSSEELETNKATLVCTITDFYPGVVTVDWKVDGTPVTQGMETTQPSKQSNNKYMASSYLTLTARAWERHSSYSCQVTHEGHTVEKSLSRADCS
# notes: also called 71D6 (mouse format)
# B5: 76H10 llama-human chimeric mAb (human IgG1/lambda) (antibody, V domains shown)
# VH: QLQLVESGGGLVQPGGSLRVSCTASGFTFNTYYMTWVRQAPGKGLEWVSDINSGGGTYYADSVKGRFTISRDNAKNTLYLQMNSLKPEDTALYYCVRVRIWPVGYDYWGQGTQVTVSS
# VL: QAVVTQEPSLSVSPGGTVTLTCGLSSGSVTTSNYPGWFQQTPGQAPRTLIYNTNNRHSGVPSRFSGSISGNKAALTITGAQPEDEADYYCSLYTGSYTTVFGGGTHLTVLQ
# How the values were obtained:
# [1] = molecular target: mouse MET on MLP29 mouse liver precursor cells (mouse) (UniProt P16056); experiment: cell-based or functional assay
# [2] = molecular target: human MET on A549 human lung carcinoma cells (human) (UniProt P08581); experiment: cell-based or functional assay
# rat MET ECD (rat) = rat MET ECD (rat) (UniProt P97523); experiment: ELISA: MET ECD immobilized (100 ng/well), mAb in human IgG1/lambda format in solution (0-40 nM), HRP anti-human Fc
# rat MET ECD (rat), sequence (P97523 25-931 limits assumed, form in doubt): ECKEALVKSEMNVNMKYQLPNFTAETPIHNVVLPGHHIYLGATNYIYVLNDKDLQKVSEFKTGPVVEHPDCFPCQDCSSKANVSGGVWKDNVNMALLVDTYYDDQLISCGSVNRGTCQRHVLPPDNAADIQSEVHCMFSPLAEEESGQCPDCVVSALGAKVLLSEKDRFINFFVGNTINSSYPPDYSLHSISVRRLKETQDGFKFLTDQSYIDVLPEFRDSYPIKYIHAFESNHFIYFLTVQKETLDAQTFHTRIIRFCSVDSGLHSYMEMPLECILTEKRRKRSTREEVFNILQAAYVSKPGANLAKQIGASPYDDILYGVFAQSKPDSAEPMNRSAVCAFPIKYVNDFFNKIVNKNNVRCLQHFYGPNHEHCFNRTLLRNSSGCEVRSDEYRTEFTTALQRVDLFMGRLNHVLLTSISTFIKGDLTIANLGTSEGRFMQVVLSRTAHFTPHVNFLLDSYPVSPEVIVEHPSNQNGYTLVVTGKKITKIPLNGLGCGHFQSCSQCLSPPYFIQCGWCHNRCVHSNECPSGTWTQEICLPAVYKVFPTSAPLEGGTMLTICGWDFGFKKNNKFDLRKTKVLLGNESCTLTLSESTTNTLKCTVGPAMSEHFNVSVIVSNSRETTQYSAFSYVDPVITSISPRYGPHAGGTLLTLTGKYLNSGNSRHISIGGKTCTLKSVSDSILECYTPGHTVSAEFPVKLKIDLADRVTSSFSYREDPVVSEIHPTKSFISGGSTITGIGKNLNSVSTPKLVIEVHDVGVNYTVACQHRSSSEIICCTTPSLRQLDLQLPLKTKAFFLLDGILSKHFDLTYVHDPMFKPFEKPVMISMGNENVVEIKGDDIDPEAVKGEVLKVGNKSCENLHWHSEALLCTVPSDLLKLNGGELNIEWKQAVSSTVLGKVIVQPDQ
# [3] = molecular target: human MET ECD mutant I (mutations 6, 7, 8) (human) (UniProt P08581); experiment: ELISA on mutant human MET ECD
# [4] = molecular target: human MET ECD mutant J (mutations 6, 7) (human) (UniProt P08581); experiment: ELISA on mutant human MET ECD
# mouse MET ECD [5] = molecular target: T1, mouse MET ECD (mouse, UniProt P16056 25-931); experiment: ELISA: MET ECD immobilized (100 ng/well), mAb in human IgG1/lambda format in solution (0-40 nM), HRP anti-human Fc
# T1 construct: range 1-931; recombinant ECD; also called mMET; mouse MET extracellular domain
# Description: (§1) To this end, we investigated whether our human/mouse equivalent anti-MET antibodies cross-reacted with MET from other species, including rat (Rattus norvegicus) and cynomolgus monkey (Macaca fascicularis). […] Human and mouse MET ECD were used as controls. A restricted panel of antibodies representative of both SEMA binders (71D6, 71C3, 71D4, 71A3, 71G2) and PSI binders (76H10, 71G3) was selected. The 5D5 prior art antibody was used as control. MET ECD proteins were immobilized in solid phase (100 ng/well in a 96-well plate) and exposed to increasing concentrations (0-40 nM) of antibodies (with human constant regions) in solution. […] We conclude that the 71D6, 71C3, 71D4, 71A3, 71G2, 76H10 and 71G3 antibodies bind with similar affinity and capacity to human MET, mouse MET, rat MET and simian MET, at least as determined by ELISA.
# monkey MET ECD = molecular target: T2, monkey MET ECD (cynomolgus monkey, UniProt A0A2K5UM36 25-932); experiment: as above
# T2 construct: also called simian MET; cynomolgus monkey MET
# T2 sequence (A0A2K5UM36 entry or part of it limits assumed): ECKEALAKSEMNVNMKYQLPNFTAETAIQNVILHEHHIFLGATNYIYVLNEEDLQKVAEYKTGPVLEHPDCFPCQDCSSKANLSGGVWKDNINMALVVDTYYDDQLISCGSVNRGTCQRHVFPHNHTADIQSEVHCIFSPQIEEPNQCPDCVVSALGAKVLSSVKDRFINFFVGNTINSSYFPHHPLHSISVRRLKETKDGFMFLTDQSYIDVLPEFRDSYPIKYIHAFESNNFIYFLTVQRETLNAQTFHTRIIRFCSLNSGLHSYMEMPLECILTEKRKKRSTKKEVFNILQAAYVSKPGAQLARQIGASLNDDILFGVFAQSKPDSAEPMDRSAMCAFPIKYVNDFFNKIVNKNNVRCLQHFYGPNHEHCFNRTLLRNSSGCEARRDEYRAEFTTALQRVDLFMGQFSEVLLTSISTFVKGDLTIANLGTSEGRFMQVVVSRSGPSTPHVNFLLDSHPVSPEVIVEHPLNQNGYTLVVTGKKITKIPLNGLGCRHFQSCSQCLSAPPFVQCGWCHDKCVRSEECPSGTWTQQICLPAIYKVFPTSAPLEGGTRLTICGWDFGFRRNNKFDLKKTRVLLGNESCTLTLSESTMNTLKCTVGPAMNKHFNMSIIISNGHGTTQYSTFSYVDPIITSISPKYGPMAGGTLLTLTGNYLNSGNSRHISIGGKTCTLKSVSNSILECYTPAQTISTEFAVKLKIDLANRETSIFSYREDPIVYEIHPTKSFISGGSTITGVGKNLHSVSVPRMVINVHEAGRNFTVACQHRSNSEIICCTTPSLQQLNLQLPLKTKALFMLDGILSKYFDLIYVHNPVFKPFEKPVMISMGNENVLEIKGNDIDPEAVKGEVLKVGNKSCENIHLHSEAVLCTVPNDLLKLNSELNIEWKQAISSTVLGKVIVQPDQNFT
# Description: as §1
# human MET ECD [6] = molecular target: T3, human MET ECD (human, UniProt P08581 25-932); experiment: as above
# T3 construct: range 1-932; recombinant ECD made by standard protein engineering; also called hMET; human MET extracellular domain
# Description: as §1
# [7] = molecular target: T4, human MET on A549 human lung carcinoma cells (human, UniProt P08581 25-1390); experiment: flow cytometry, A549 cells
# T4 construct: whole, on cells; also called native human MET
# mouse MET ECD [8] = molecular target: T1, mouse MET ECD; experiment: ELISA, mouse-format mAb on MET ECD
# Experimental: (§2) In order to directly determine whether—and to what extent—the prior art agonistic anti-MET antibodies cross-reacted with mouse MET, and to compare them to our human/mouse equivalent anti-MET antibodies, we performed an ELISA assay. Since all prior art antibodies were obtained or engineered with a mouse IgG/A format, we employed the mouse IgG/A version of 71G3, 71D6 and 71G2. Human or mouse MET ECD was immobilized in solid phase (100 ng/well in a 96-well plate) and exposed to increasing concentrations of antibodies (0-40 nM) in solution. […] Among the antibodies tested, only 71G3, 71D6 and 71G2 bound to both human and mouse MET, and they did so with indistinguishable affinities and capacities.
# human MET ECD [9] = molecular target: T3, human MET ECD; experiment: ELISA, mouse-format mAb on MET ECD
# Experimental: as §2
# [10] = molecular target: T5, mouse MET on MLP29 mouse liver precursor cells (mouse, UniProt P16056 25-1379); experiment: flow cytometry, MLP29 cells
# T5 construct: whole, on cells; also called native mouse MET
# mouse MET ECD [11] = molecular target: T1, mouse MET ECD; experiment: ELISA on MET ECD
# [12] = molecular target: T4, human MET on A549 human lung carcinoma …; experiment: cell-based or functional assay
# [13] = molecular target: T5, mouse MET on MLP29 mouse liver …; experiment: cell-based or functional assay
# [14] = molecular target: human MET ECD mutant H (mutations 2, 4) (human) (UniProt P08581); experiment: ELISA on mutant human MET ECD
# [15] = molecular target: human MET ECD mutant D (mutations 1, 2) (human) (UniProt P08581); experiment: ELISA on mutant human MET ECD
# [16] = molecular target: human MET ECD mutant A (mutations 1, 2, 3) (human) (UniProt P08581); experiment: ELISA on mutant human MET ECD
# [17] = molecular target: human MET ECD mutant E (mutations 2, 3, 4) (human) (UniProt P08581); experiment: ELISA on mutant human MET ECD
# human MET ECD [18] = molecular target: T3, human MET ECD; experiment: ELISA on MET ECD
molecule,measurement,setting,value
recombinant mouse HGF (from UniProt Q08048 33-728) (ligand),phospho-MET ELISA EC50,[1],0.23 nM
same,phospho-MET ELISA EMAX (% HGF activity),[1],100
recombinant human HGF (from UniProt P14210 32-728) (ligand),phospho-MET ELISA EC50,[2],0.19 nM
same,phospho-MET ELISA EMAX (% HGF activity),[2],100
B1,EC50 (read off the curve),rat MET ECD (rat),0.1 nM
same,% binding (EMAX) vs WT MET ECD,[3],100%
same,% binding (EMAX) vs WT MET ECD,[4],91.2%
same,EC50 (read off the curve),mouse MET ECD [5],~0.04 nM
same,EC50 (read off the curve),monkey MET ECD,~0.04 nM
same,EC50 (read off the curve),human MET ECD [6],~0.08 nM
B2,EMAX,[7],116 % CTR
same,EMAX,mouse MET ECD [8],3.06 OD450
same,EC50,human MET ECD [9],0.058 nM
same,EMAX,human MET ECD [9],3.11 OD450
same,EMAX,[10],110 % CTR
same,EC50,mouse MET ECD [11],0.062 nM
same,A549 MET act. EMAX,[12],90.8 % HGF
same,MLP29 MET act. EMAX,[13],91.9 % HGF
B3,EC50 (read off the curve),rat MET ECD (rat),0.1 nM
same,% binding (EMAX) vs WT MET ECD,[14],40.2%
same,% binding (EMAX) vs WT MET ECD,[15],114%
same,% binding (EMAX) vs WT MET ECD,[16],92.1%
same,% binding (EMAX) vs WT MET ECD,[17],41.4%
same,EC50 (read off the curve),mouse MET ECD [5],~0.06 nM
same,EC50 (read off the curve),monkey MET ECD,~0.07 nM
same,EC50 (read off the curve),human MET ECD [6],~0.1 nM
B4,EMAX,[7],122 % CTR
same,EC50,mouse MET ECD [8],0.044 nM
same,EMAX,mouse MET ECD [8],2.94 OD450
same,EC50,human MET ECD [9],0.042 nM
same,EMAX,human MET ECD [9],2.69 OD450
same,EMAX,[10],119 % CTR
same,EC50,human MET ECD [18],0.038 nM
same,A549 MET act. EMAX,[12],98.3 % HGF
same,MLP29 MET act. EMAX,[13],103 % HGF
B5,EC50 (read off the curve),rat MET ECD (rat),0.1 nM
same,% binding (EMAX) vs WT MET ECD,[3],100%
same,% binding (EMAX) vs WT MET ECD,[4],89%
same,EC50 (read off the curve),mouse MET ECD [5],~0.03 nM
same,EC50 (read off the curve),monkey MET ECD,~0.04 nM
same,EC50 (read off the curve),human MET ECD [6],~0.1 nM
